The results in this text go back to patent US20230051304A1 (Regeneron, published 2023).

The experiment concerns the target murine IL12 receptor complex (IL12Rβ1 and IL12Rβ2) (mouse, UniProt Q60837 20-738; P97378 24-874). Put plainly: cell-based or functional assay.

murine IL12 receptor complex (IL12Rβ1 and IL12Rβ2), sequence (Q60837 20-738, chain 1 of 2): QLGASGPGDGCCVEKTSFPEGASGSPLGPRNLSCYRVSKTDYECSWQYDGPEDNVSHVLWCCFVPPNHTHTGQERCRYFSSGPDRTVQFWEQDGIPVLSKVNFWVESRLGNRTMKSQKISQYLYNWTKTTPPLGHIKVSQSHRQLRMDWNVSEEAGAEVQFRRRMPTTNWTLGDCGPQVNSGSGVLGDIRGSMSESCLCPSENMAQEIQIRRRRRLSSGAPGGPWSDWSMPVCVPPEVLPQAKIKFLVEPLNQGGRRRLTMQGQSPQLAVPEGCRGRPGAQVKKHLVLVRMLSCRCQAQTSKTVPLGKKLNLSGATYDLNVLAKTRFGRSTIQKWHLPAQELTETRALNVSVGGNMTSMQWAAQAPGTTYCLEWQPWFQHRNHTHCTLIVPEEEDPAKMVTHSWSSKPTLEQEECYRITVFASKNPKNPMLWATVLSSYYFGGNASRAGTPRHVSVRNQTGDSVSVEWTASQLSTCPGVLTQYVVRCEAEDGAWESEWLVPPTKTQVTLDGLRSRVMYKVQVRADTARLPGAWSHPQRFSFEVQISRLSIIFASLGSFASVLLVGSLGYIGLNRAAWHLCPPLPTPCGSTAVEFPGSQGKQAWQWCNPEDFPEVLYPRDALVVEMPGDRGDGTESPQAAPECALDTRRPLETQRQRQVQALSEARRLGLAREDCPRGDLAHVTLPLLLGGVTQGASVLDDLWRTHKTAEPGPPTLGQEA
murine IL12 receptor complex (IL12Rβ1 and IL12Rβ2), sequence (P97378 24-874, chain 2 of 2): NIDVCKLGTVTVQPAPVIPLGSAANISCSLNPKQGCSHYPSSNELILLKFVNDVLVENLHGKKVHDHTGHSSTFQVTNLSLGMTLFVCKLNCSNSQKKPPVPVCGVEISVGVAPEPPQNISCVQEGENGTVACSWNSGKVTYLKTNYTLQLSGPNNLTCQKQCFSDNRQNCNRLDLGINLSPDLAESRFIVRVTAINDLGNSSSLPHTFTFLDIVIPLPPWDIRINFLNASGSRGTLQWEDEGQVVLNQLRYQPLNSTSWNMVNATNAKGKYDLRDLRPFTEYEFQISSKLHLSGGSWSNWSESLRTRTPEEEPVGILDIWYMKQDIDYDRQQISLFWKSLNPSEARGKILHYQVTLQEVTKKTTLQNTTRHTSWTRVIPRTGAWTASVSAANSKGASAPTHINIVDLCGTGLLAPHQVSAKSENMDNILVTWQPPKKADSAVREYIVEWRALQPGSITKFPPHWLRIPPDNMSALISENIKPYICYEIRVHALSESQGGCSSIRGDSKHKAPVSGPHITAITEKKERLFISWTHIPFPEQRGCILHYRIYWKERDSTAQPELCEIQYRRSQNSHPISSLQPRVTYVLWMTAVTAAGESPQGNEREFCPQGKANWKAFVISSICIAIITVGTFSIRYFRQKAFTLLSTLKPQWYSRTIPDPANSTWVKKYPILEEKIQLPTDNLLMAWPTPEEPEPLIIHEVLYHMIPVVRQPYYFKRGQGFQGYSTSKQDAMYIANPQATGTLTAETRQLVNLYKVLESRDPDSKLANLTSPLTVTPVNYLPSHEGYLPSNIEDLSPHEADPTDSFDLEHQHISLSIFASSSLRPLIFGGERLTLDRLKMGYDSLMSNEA

B1: Fc-IL12(mutein 12) (Fc fusion)
chain: ESKYGPPCPPCPAPPVAGPSVFLFPPKPKDTLMISRTPEVTCVVVDVSQEDPEVQFNWYVDGVEVHNAKTKPREEQFNSTYRVVSVLTVLHQDWLNGKEYKCKVSNKGLPSSIEKTISKAKGQPREPQVYTLPPSQEEMTKNQVSLTCLVKGFYPSDIAVEWESNGQPENNYKTTPPVLDSDGSFFLYSRLTVDKSRWQEGNVFSCSVMHEALHNHYTQKSLSLSLGKGGGGSGGGGSGGGGSNGIWSTEILKNFKNKTFLKCEAPNYSGRFTCSWLVQRNMDLKFNIKSSSSSPDSRAVTCGMASLSAEKVTLDQRDYEKYSVSCQEDVTCPTAEETLPIELALEARQQNKYENYSTSFFIRDIIKPDPPKNLQMKPLKNSQVEVSWEYPDSWSTPHSYFSLKFFVRIQRKKEKMKETEEGCNQKGAFLVEKTSTEVQCKGGNVCVQAQDRYYNSSCSKWACVPCRVRSGGGGSGGGGSGGGGSRVIPVSGPARCLSQSRNLLKTTDDMVKTAREKLKHYSCTAEDIDHEDITRDQTSTLKTCLPLELHKNESCLATRETSSTTRGSCLPPQKTSLMMTLCLGSIYEDLKMYQTEFQAINAALQNHNHQQIILDKGMLVAIDELMQSLNHNGETLRQKPPVGEADPYRVKMKLCILLHAFSTRVVTINRVMGYLSSA
As for B1, the “Fold induction at 20 nM; STAT3-Luc reporter, CTLL2/STAT3-Luc cells” value was 1.04 fold and the “Max fold induction; STAT3-Luc reporter, CTLL2/STAT3-Luc cells” value (“Max fold induction … CTLL2/STAT3-Luc cells” for short) turned out to be 1.1 fold.

B2: Fc-IL12(mutein 1) (Fc fusion)
chain: ESKYGPPCPPCPAPPVAGPSVFLFPPKPKDTLMISRTPEVTCVVVDVSQEDPEVQFNWYVDGVEVHNAKTKPREEQFNSTYRVVSVLTVLHQDWLNGKEYKCKVSNKGLPSSIEKTISKAKGQPREPQVYTLPPSQEEMTKNQVSLTCLVKGFYPSDIAVEWESNGQPENNYKTTPPVLDSDGSFFLYSRLTVDKSRWQEGNVFSCSVMHEALHNHYTQKSLSLSLGKGGGGSGGGGSGGGGSMWELEKDVYVVEVDWTPDAPGETVNLTCDTPEEDDITWTSDQRHGVIGSGKTLTITVKEFLDAGQYTCHKGGETLSHSHLLLHKKENGIWSTEILKNFKNKTFLKCEAPNYSGRFTCSWLVQRNMDLKFNIKSSSSSPDSRAVTCGMASLSAEKVTLDQRDYEKYSVSCQEDVTCPTAEETLPIELALEARQQNKYENYSTSFFIRDIIKPDPPKNLQMKPLKNSQVEVSWEYPDSWSTPHSYFSLKFFVRIQRKKEKMKETEEGCNQKGAFLVEKTSTEVQCKGGNVCVQAQDRYYNSSCSKWACVPCRVRSGGGGSGGGGSGGGGSRVIPVSGPARCLSQSRNLLKTTDDMVKTAREKLKHYSCTAEDIDHEDITRDQTSTLKTCLPLELHKNESCLATRETSSTTRGSCLPPQKTSLMMTLCLGSIYEDLKMYQTEFQAINAALQNHNHQQIILDKGMLVAIDELMQSLNHNGETLRQKPPVGEADPARVKMKLCILLHAFSTRVVTINRVMGYLSSA
With B2, the “EC50 (M); STAT3-Luc reporter, CTLL2/STAT3-Luc cells” value (“EC50 (M) … CTLL2/STAT3-Luc cells” for short) worked out at 1.76e-10 M; the “Fold induction at 20 nM; STAT3-Luc reporter, CTLL2/STAT3-Luc cells” value was 4.52 fold; the “Max fold induction … CTLL2/STAT3-Luc cells” value turned out to be 4.52 fold.

B3: Fc-IL12(mutein 2) (Fc fusion)
chain: ESKYGPPCPPCPAPPVAGPSVFLFPPKPKDTLMISRTPEVTCVVVDVSQEDPEVQFNWYVDGVEVHNAKTKPREEQFNSTYRVVSVLTVLHQDWLNGKEYKCKVSNKGLPSSIEKTISKAKGQPREPQVYTLPPSQEEMTKNQVSLTCLVKGFYPSDIAVEWESNGQPENNYKTTPPVLDSDGSFFLYSRLTVDKSRWQEGNVFSCSVMHEALHNHYTQKSLSLSLGKGGGGSGGGGSGGGGSMWELEKDVYVVEVDWTPDAPGETVNLTCDTPEEDDITWTSDQRHGVIGSGKTLTITVKEFLDAGQYTCHKGGETLSHSHLLLHKKENGIWSTEILKNFKNKTFLKCEAPNYSGRFTCSWLVQRNMDLKFNIKSSSSSPDSRAVTCGMASLSAEKVTLDQRDYEKYSVSCQEDVTCPTAEETLPIELALEARQQNKYENYSTSFFIRDIIKPDPPKNLQMKPLKNSQVEVSWEYPDSWSTPHSYFSLKFFVRIQRKKEKMKETEEGCNQKGAFLVEKTSTEVQCKGGNVCVQAQDRYYNSSCSKWACVPCRVRSGGGGSGGGGSGGGGSRVIPVSGPARCLSQSRNLLKTTDDMVKTAREKLKHYSCTAEDIDHEDITRDQTSTLKTCLPLELHKNESCLATRETSSTTRGSCLPPQKTSLMMTLCLGSIYEDLKMYQTEFQAINAALQNHNHQQIILDKGMLVAIDELMQSLNHNGETLRQKPPVGEADPVRVKMKLCILLHAFSTRVVTINRVMGYLSSA
As to B3, the “EC50 (M) … CTLL2/STAT3-Luc cells” value came out at 2.6e-10 M; the “Fold induction at 20 nM; STAT3-Luc reporter, CTLL2/STAT3-Luc cells” value was found to be 5.41 fold; the “Max fold induction … CTLL2/STAT3-Luc cells” value turned out to be 5.9 fold.

B4: Fc-IL12(mutein 3) (Fc fusion)
chain: ESKYGPPCPPCPAPPVAGPSVFLFPPKPKDTLMISRTPEVTCVVVDVSQEDPEVQFNWYVDGVEVHNAKTKPREEQFNSTYRVVSVLTVLHQDWLNGKEYKCKVSNKGLPSSIEKTISKAKGQPREPQVYTLPPSQEEMTKNQVSLTCLVKGFYPSDIAVEWESNGQPENNYKTTPPVLDSDGSFFLYSRLTVDKSRWQEGNVFSCSVMHEALHNHYTQKSLSLSLGKGGGGSGGGGSGGGGSMWELEKDVYVVEVDWTPDAPGETVNLTCDTPEEDDITWTSDQRHGVIGSGKTLTITVKEFLDAGQYTCHKGGETLSHSHLLLHKKENGIWSTEILKNFKNKTFLKCEAPNYSGRFTCSWLVQRNMDLKFNIKSSSSSPDSRAVTCGMASLSAEKVTLDQRDYEKYSVSCQEDVTCPTAEETLPIELALEARQQNKYENYSTSFFIRDIIKPDPPKNLQMKPLKNSQVEVSWEYPDSWSTPHSYFSLKFFVRIQRKKEKMKETEEGCNQKGAFLVEKTSTEVQCKGGNVCVQAQDRYYNSSCSKWACVPCRVRSGGGGSGGGGSGGGGSRVIPVSGPARCLSQSRNLLKTTDDMVKTAREKLKHYSCTAEDIDHEDITRDQTSTLKTCLPLELHKNESCLATRETSSTTRGSCLPPQKTSLMMTLCLGSIYEDLKMYQTEFQAINAALQNHNHQQIILDKGMLVAIDELMQSLNHNGETLRQKPPVGEADPRRVKMKLCILLHAFSTRVVTINRVMGYLSSA
For B4, the “Fold induction at 20 nM; STAT3-Luc reporter, CTLL2/STAT3-Luc cells” value was determined as 1.06 fold and the “Max fold induction … CTLL2/STAT3-Luc cells” value is 1.11 fold.

B5: Fc-IL12(mutein 11) (Fc fusion)
chain: ESKYGPPCPPCPAPPVAGPSVFLFPPKPKDTLMISRTPEVTCVVVDVSQEDPEVQFNWYVDGVEVHNAKTKPREEQFNSTYRVVSVLTVLHQDWLNGKEYKCKVSNKGLPSSIEKTISKAKGQPREPQVYTLPPSQEEMTKNQVSLTCLVKGFYPSDIAVEWESNGQPENNYKTTPPVLDSDGSFFLYSRLTVDKSRWQEGNVFSCSVMHEALHNHYTQKSLSLSLGKGGGGSGGGGSGGGGSMWELEKDVYVVEVDWTPDAPGETVNLTCDTPEEDDITWTSDQRHGVIGSGKTLTITVKEFLDAGQYTCHKGGETLSHSHLLLHKKENGIWSTAILANFANATFLKCEAPNYSGRFTCSWLVQRNMDLKFNIKSSSSSPDSRAVTCGMASLSAEKVTLDQRDYEKYSVSCQEDVTCPTAEETLPIELALEARQQNKYENYSTSFFIRDIIKPDPPKNLQMKPLKNSQVEVSWEYPDSWSTPHSYFSLKFFVRIQRKKEKMKETEEGCNQKGAFLVEKTSTEVQCKGGNVCVQAQDRYYNSSCSKWACVPCRVRSGGGGSGGGGSGGGGSRVIPVSGPARCLSQSRNLLKTTDDMVKTAREKLKHYSCTAEDIDHEDITRDQTSTLKTCLPLELHKNESCLATRETSSTTRGSCLPPQKTSLMMTLCLGSIYEDLKMYQTEFQAINAALQNHNHQQIILDKGMLVAIDELMQSLNHNGETLRQKPPVGEADPYRVKMKLCILLHAFSTRVVTINRVMGYLSSA
For the molecule B5, the “EC50 (M) … CTLL2/STAT3-Luc cells” value is 1.33e-09 M; the “Fold induction at 20 nM; STAT3-Luc reporter, CTLL2/STAT3-Luc cells” value stood at 8.93 fold; the “Max fold induction … CTLL2/STAT3-Luc cells” value is 10.2 fold.

B6: Fc-IL12(mutein 8) (Fc fusion)
chain: ESKYGPPCPPCPAPPVAGPSVFLFPPKPKDTLMISRTPEVTCVVVDVSQEDPEVQFNWYVDGVEVHNAKTKPREEQFNSTYRVVSVLTVLHQDWLNGKEYKCKVSNKGLPSSIEKTISKAKGQPREPQVYTLPPSQEEMTKNQVSLTCLVKGFYPSDIAVEWESNGQPENNYKTTPPVLDSDGSFFLYSRLTVDKSRWQEGNVFSCSVMHEALHNHYTQKSLSLSLGKGGGGSGGGGSGGGGSMWELEKDVYVVEVDATPDAPGETVNLTCDTPEEDDITWTSDQRHGVIGSGKTLTITVKEFLDAGQYTCHKGGETLSHSHLLLHKKENGIWSTEILKNFKNKTFLKCEAPNYSGRFTCSWLVQRNMDLKFNIKSSSSSPDSRAVTCGMASLSAEKVTLDQRDYEKYSVSCQEDVTCPTAEETLPIELALEARQQNKYENYSTSFFIRDIIKPDPPKNLQMKPLKNSQVEVSWEYPDSWSTPHSYFSLKFFVRIQRKKEKMKETEEGCNQKGAFLVEKTSTEVQCKGGNVCVQAQDRYYNSSCSKWACVPCRVRSGGGGSGGGGSGGGGSRVIPVSGPARCLSQSRNLLKTTDDMVKTAREKLKHYSCTAEDIDHEDITRDQTSTLKTCLPLELHKNESCLATRETSSTTRGSCLPPQKTSLMMTLCLGSIYEDLKMYQTEFQAINAALQNHNHQQIILDKGMLVAIDELMQSLNHNGETLRQKPPVGEADPYRVKMKLCILLHAFSTRVVTINRVMGYLSSA
On to B6, for which the “EC50 (M) … CTLL2/STAT3-Luc cells” value was 8.05e-10 M; the “Fold induction at 20 nM; STAT3-Luc reporter, CTLL2/STAT3-Luc cells” value is 10 fold; the “Max fold induction … CTLL2/STAT3-Luc cells” value was determined as 10.1 fold.

B7: Fc-IL12(mutein 4) (Fc fusion)
chain: ESKYGPPCPPCPAPPVAGPSVFLFPPKPKDTLMISRTPEVTCVVVDVSQEDPEVQFNWYVDGVEVHNAKTKPREEQFNSTYRVVSVLTVLHQDWLNGKEYKCKVSNKGLPSSIEKTISKAKGQPREPQVYTLPPSQEEMTKNQVSLTCLVKGFYPSDIAVEWESNGQPENNYKTTPPVLDSDGSFFLYSRLTVDKSRWQEGNVFSCSVMHEALHNHYTQKSLSLSLGKGGGGSGGGGSGGGGSMWELEKDVYVVEVDWTPDAPGETVNLTCDTPEEDDITWTSDQRHGVIGSGKTLTITVKEFLDAGQYTCHKGGETLSHSHLLLHKKENGIWSTEILKNFKNKTFLKCEAPNYSGRFTCSWLVQRNMDLKFNIKSSSSSPDSRAVTCGMASLSAEKVTLDQRDYEKYSVSCQEDVTCPTAEETLPIELALEARQQNKYENYSTSFFIRDIIKPDPPKNLQMKPLKNSQVEVSWEYPDSWSTPHSYFSLKFFVRIQRKKEKMKETEEGCNQKGAFLVEKTSTEVQCKGGNVCVQAQDRYYNSSCSKWACVPCRVRSGGGGSGGGGSGGGGSRVIPVSGPARCLSQSRNLLKTTDDMVKTAREKLKHYSCTAEDIDHEDITRDQTSTLKTCLPLELHKNESCLATRETSSTTRGSCLPPQKTSLMMTLCLGSIYEDLKMYQTEFQAINAALQNHNHQQIILDKGMLVAIDELMQSLNHNGETLRQKPPVGEADPERVKMKLCILLHAFSTRVVTINRVMGYLSSA
Regarding B7, the “Fold induction at 20 nM; STAT3-Luc reporter, CTLL2/STAT3-Luc cells” value was found to be 1.12 fold and the “Max fold induction … CTLL2/STAT3-Luc cells” value is 1.16 fold.
